Results from US20030235860A1, “Interactions between AR, ER, TR2, and TR4” (priority 1999, published 2003).

B1: TR2: human testicular orphan nuclear receptor 2, 603 amino acids (protein, UniProt P13056 1-603, looked up)
chain: MATIEEIAHQIIEQQMGEIVTEQQTGQKIQIVTALDHNTQGKQFILTNHDGSTPSKVILARQDSTPGKVFLTTPDAAGVNQLFFTTPDLSAQHLQLLTDNSPDQGPNKVFDLCVVCGDKASGRHYGAVTCEGCKGFFKRSIRKNLVYSCRGSKDCIINKHHRNRCQYCRLQRCIAFGMKQDSVQCERKPIEVSREKSSNCAASTEKIYIRKDLRSPLTATPTFVTDSESTRSTGLLDSGMFMNIHPSGVKTESAVLMTSDKAESCQGDLSTLANVVTSLANLGKTKDLSQNSNEMSMIESLSNDDTSLCEFQEMQTNGDVSRAFDTLAKALNPGESTACQSSVAGMEGSVHLITGDSSINYTEKEGPLLSDSHVAFRLTMPSPMPEYLNVHYIGESASRLLFLSMHWALSIPSFQALGQENSISLVKAYWNELFTLGLAQCWQVMNVATILATFVNCLHNSLQQDKMSTERRKLLMEHIFKLQEFCNSMVKLCIDGYEYAYLKAIVLFSPDHPSLENMEQIEKFQEKAYVEFQDYITKTYPDDTYRLSRLLLRLPALRLMNATITEELFFKGLIGNIRIDSVIPHILKMEPADYNSQIIGHSI
modifications: full-length
notes: human testicular orphan nuclear receptor 2, 603 amino acids
B2: TR4: human testicular orphan nuclear receptor 4, SEQ ID NO:16; expressed from plasmid or in vitro translated (protein)
chain: MTSPSPRIQIISTDSAVASPQRIQGSEPASGPLSVFTSLNKEKIVTDQQTGQKIQIVTAVDASGSPKQQFILTSPDGAGTGKVILASPETSSAKQLIFTTSDNLVPGRIQIVTDSASVERLLGKTDVQRPQVVEYCVVCGDKASGRHYGAVSCEGCKGFFKRSVRKNLTYSCRSSQDCIINKHHRNRCQFCRLKKCLEMGMKMESVQSERKPFDVQREKPSNCAASTEKIYIRKDLRSPLIATPTFVADKDGARQTGLLDPGMLVNIQQPLIREDGTVLLATDSKAETSQGALGTLANVVTSLANLSESLNNGDTSEIQPEDQSASEITRAFDTLAKALNTTDSSSSPSLADGIDTSGGGSIHVISRDQSTPIIEVEGPLLSDTHVTFKLTMPSPMPEYLNVHYICESASRLLFLSMHRARSIPAFQGLGQDCNTSLVRACWNELFTLGLAQCAQVMSLSTILAAIVNHLQNSIQEDKLSGDRIKQVMEHIWKLQEFCNSMANWDIDGYEYAYLKAIVLFSPDHPGLTSTSQIEKFQEKAQMELQDYVQKTYSEDTYRLARILVRLPALRLMSSNITEELFFTGLIGNVSIDSIIPYILKMETAEYNGQITGVSL

Tests used:
Type in all cases: cell-based
TR2 = biological target: T1, TR2 (Homo sapiens, UniProt P13056); assay: TR2-mediated transactivation reporter assay; conditions: PC-3 cells; 1 μg expression plasmid
T1 sequence (P13056 1-603): B1 chain
Protocol: Transfections and chloramphenicol acetyltransferase (CAT) assays were performed as described previously. Yeh, & Chang, Proc. Natl. Acad. Sci. 93, 5517-5521 (1996). Briefly, 4×10^5 cells were plated in 60-mm dishes and cultured for 24 h, and then the medium was changed to phenol red free DMEM with 5% charcoal-stripped FCS 2 h before transfection. The cells were co-transfected with TR2 and/or ER expression plasmids with 2 μg of TR2-TK-CAT reporter or 1 μg of ERE-CAT reporter gene plasmid, as indicated in the Figures, by using the calcium phosphate precipitation method. A β-gal actosidase expression plasmid, pCMV-β-gal, was transfected in all transfections as an internal control for normalizing transfection efficiency. The total amount of DNA was adjusted up to 10.5 μg with parent vectors, pSG5 or pCMV in each transcriptional activity assay. […] The cells were then harvested and whole cell extracts were used for CAT assay. The CAT activity was quantitated by Phosphorlmager (Molecular Dynamics). Data are presented as means±S.D. of at least three independent experiments.
The CAT reporter assay was used to study the potential consequence of the formation of heterodimers between the TR2 and ER. […] More specifically, H1299 cells were transiently cotransfected with 2 μg of DR4-TK-CAT reporter plasmid and 3 μg of TR2 expression plasmid together with increasing amounts of the ER expression vector. […] Cells were also transfected with internal control reporter plasmid, pCMV-β-gal, as an internal control for transfection efficiency. Luciferase activity was then analyzed following manufacturer's instructions (Promega). […] Similar results were obtained when the DR4-TK-CAT reporter with DR1-HBV-LUC were replaced, another TR2 response element (FIG. 7C).
This conclusion was further confirmed by using the chimera receptor, TR2-androgen receptor (AR) ARp-TR2, which was generated by swapping TR2 proximal box (P-box) with that found in the AR. […] Luciferase activity was then analyzed following manufacturer's instructions (Promega). […]

MCF-7-TR4 cells = assay: MCF-7 cells growth assay (cell counting); conditions: MCF-7-TR4 cells (E2 also in MCF-7-pBIG); 10 nM E2; Dox
Protocol: MCF-7-TR4 and MCF-7-pBIG cells, which were deprived of estrogen by culturing in phenol-free DMEM medium supplement with 10% charcol-stripped FBS for 4 days, were plated at 10^4 cells/well into 24-well plate. […] Cells were trypsinized at the specified time points and counted with a hemocytometer to determine cell density per sample.

AR = biological target: T2, AR (Homo sapiens, UniProt P10275, DEL79-80/DUP473-473); assay: Immunocytofluorescence of AR localization in DU145 cells; parameters: expressed in transfected cells; host or cells: DU145 cells; conditions: absence of DHT
T2 sequence (P10275 with tags, fused parts or gaps DEL79-80/DUP473-473): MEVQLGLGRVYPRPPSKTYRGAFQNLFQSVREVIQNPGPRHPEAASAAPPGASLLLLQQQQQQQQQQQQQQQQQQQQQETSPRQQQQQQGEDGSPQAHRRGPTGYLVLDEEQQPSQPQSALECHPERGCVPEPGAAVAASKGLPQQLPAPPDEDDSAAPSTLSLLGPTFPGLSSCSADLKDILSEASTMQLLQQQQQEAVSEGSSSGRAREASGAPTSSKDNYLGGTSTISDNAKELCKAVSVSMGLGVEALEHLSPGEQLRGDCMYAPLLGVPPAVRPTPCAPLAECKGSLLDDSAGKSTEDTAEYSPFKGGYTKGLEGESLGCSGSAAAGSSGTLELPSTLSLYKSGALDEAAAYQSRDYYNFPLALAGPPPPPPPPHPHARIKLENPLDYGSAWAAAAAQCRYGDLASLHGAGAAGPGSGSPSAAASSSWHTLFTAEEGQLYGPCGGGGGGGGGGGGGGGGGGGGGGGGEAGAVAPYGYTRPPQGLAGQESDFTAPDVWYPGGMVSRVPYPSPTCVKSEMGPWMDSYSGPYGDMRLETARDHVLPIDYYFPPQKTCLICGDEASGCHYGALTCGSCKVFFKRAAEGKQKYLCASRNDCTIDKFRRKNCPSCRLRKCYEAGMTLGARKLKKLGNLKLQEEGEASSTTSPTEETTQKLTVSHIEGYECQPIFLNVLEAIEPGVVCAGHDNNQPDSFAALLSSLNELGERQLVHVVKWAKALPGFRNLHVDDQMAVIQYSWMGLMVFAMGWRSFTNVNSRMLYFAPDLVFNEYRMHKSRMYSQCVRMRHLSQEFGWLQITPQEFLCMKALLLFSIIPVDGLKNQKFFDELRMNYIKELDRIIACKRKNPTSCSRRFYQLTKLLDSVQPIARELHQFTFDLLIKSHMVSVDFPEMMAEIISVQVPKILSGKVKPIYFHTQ
Protocol: DU145 cells were seeded on two-well Lab Tek Chamber slides (Nalge Nunc International) 18 h before transfection. One to two μg of DNA per 10^5 cells was transfected by the FuGENETM 6 transfection reagent (Boehringer-Mannheim). […] Immunostaining was performed by incubating with anti-AR polyclonal antibody (NH27), anti-TR4 monoclonal antibody (#15), and anti-ERa monoclonal antibody (C-314, Santa Cruz), followed by incubation with either fluorescein-conjugated goat anti-rabbit or anti-mouse antibodies (ICN Pharmaceuticals, Inc.). […] The slides were photographed under 100-fold magnification using confocal microscopy.
An immunocytofluorescence assay was then applied to determine the subcellular localization of the AR and TR4 in DU145 cells. DU145 cells were seeded on two-well Lab Tek Chamber slides (Nalge Nunc International) 18 hours before transfection. One to two μg of DNA per 105 cells was transfected either with AR (unliganded or liganded), TR4, or ER alone or in combination with the FuGENETM6 transfection reagent (Boehringer-Mannheim). […] Immunostaining was performed by incubation with the anti-AR polyclonal antibody, anti-TR4 monoclonal antibody, or anti-ERa monoclonal antibody, followed by incubation with either fluorescein-conjugated goat anti-rabbit or anti-mouse antibodies (ICN Pharmaceuticals, Inc.).

Molecule	DR1-HBV-LUC activity (TR2)	Cell growth (cell number) (MCF-7-TR4 cells)	Subcellular localization of unliganded AR on co-transfection (AR)
B1	induced	–	–
B2	–	repress	moves into the nucleus
